The record followed here is publication doi:10.1101/2021.02.23.432414.

Where two headings read alike, the source gives them in different places.

Assay [1] concerns the target fluorescently labelled double-cysteine variant of outer membrane protein X (OmpX_(1,149)), unfolded (UniProt P0A917). As to the kind of experiment: single-molecule FRET.
Assay [2] has the same target. Put plainly: single-molecule FRET. This is another data set of the same source.

Chain of UniProt P0A917 (P0A917 24-171, change not shown): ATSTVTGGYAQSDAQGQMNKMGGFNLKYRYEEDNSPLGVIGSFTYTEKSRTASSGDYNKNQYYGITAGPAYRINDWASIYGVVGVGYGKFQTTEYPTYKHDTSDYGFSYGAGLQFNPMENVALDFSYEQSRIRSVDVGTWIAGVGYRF

In assay [1], “survival factor A (SurA) (from UniProt P0ABZ6 21-428) (natural protein)” returned a c1/2 of 407 nM, a dH of -31.5 kcal/mol and a percent of uOmpX bound at ~6 uM SurA of 87%.

B1: seventeen-kilodalton protein (Skp), trimer (natural protein)
chain: ADKIAIVNMGSLFQQVAQKTGVSNTLENEFKGRASELQRMETDLQAKMKKLQSMKAGSDRTKLEKDVMAQRQTFAQKAQAFEQDRARRSNEERGKLVTRIQTAVKSVANSQDIDLVVDANAVAYNSSDVKDITADVLKQVK
In assay [2], B1 gave a c1/2 of 359 nM, a dH of -71.2 kcal/mol and a percent of uOmpX bound at 2.5 uM Skp3 of 80%.
